84 variants from the RNAGym collection of RNA variant scans (doi:10.1073/pnas.2313332121) can be followed below.

Variants at the floor of the assay were thinned out. Some results are limits rather than exact numbers.

Sequences and labels used below:
B1: TPR 5TU (parent)
chain: GGAUCUUCUCGAUCUAACAAAAAAGACAAAUCUGCCACAAAGCUUGAGAGCAUCUUCGGAUGCAGAGGCGGCAGCCUUCGGUGGCGCGAUAGCGCCAACGUUCUCAACUAUGACACGCAAAACGCGUGCUCCGUUGAAUGGAGUUUAUCAUG

The variants in the series derive from B1. Nature of the series: polymerase ribozyme fitness, log enrichment relative to wild type (log ratio); higher = more active; in vitro selection for triplet polymerase activity. The gist of the method:
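Frozen incubation at −7 °C formed the core of a single, triplicate in vitro selection round applied to PCR-built, transcribed mutant libraries of each subunit of a heterodimeric triplet polymerase ribozyme. Extended constructs were gel-excised, captured with streptavidin beads and amplified by RT-PCR, and input and output libraries were Illumina-sequenced with a filter of ≥10 input reads and ≥1 read per output. Fitness is the logarithm of genotype enrichment relative to wild-type enrichment, with inverse-variance-weighted replicate averaging, and the logarithm is base 2.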
On to A40U U55C U78G U151A, for which the “polymerase ribozyme fitness (log ratio)” value is at most -4.2. Then C8A C114G A142C, with at most -4.2; and C5A C54A C57A G58A G68A A89U C95G, with at most -4.2. Regarding C76A C85G C87U G141C A142C, the “polymerase ribozyme fitness (log ratio)” value is at most -4.2. Regarding C36U C87U, the “polymerase ribozyme fitness (log ratio)” value is -1.6. For A17U A22U A52G G92C A115G, the “polymerase ribozyme fitness (log ratio)” value is -2.67. Then U33A, with -3.29. As to A12C A20C A26G, the “polymerase ribozyme fitness (log ratio)” value was at most -4.2. Take U15C G84A A106G G124A: the “polymerase ribozyme fitness (log ratio)” value is -0.149. With C54U C76U C123A U139G U146C A150C, the “polymerase ribozyme fitness (log ratio)” value is at most -4.2.

Turning to C87A G117C G136U G141U, the “polymerase ribozyme fitness (log ratio)” value was at most -4.2. Take C5G A52C G58A C93A C118U: the “polymerase ribozyme fitness (log ratio)” value was -3.09. Take C87A G117C U146C: the “polymerase ribozyme fitness (log ratio)” value was at most -4.2. As for A64C G71A U144G U148G, the “polymerase ribozyme fitness (log ratio)” value is at most -4.2. Consider C27U A97U C116U A120C, for which the “polymerase ribozyme fitness (log ratio)” value is -3.06. Turning to U4C U7C A17U A41C G68C U78A C99A C103G, the “polymerase ribozyme fitness (log ratio)” value is at most -4.2. With A22G G92A C108G, the “polymerase ribozyme fitness (log ratio)” value was at most -4.2. As to C38U G65C G70U C85G U111G A115U U127G G140C U146G, the “polymerase ribozyme fitness (log ratio)” value is at most -4.2.

As for G11U C14G G46A U55A C87U, the “polymerase ribozyme fitness (log ratio)” value is at most -4.2. On to A3G C18U A49C C57U C85G G143U, for which the “polymerase ribozyme fitness (log ratio)” value was at most -4.2.

Consider A16C C35U G80A G94A C118U, for which the “polymerase ribozyme fitness (log ratio)” value is -3.33. Turning to A17G G84A, the “polymerase ribozyme fitness (log ratio)” value was -0.469. In the case of A23U C57U, the “polymerase ribozyme fitness (log ratio)” value is -3.64. On to A20G C36U A119U A120C C129U A142G, for which the “polymerase ribozyme fitness (log ratio)” value was -4.1. Regarding A66G G84A G141C, the “polymerase ribozyme fitness (log ratio)” value is at most -4.2. With A28C G84U G88C A91G G124U, the “polymerase ribozyme fitness (log ratio)” value was at most -4.2. For A12C C114U, the “polymerase ribozyme fitness (log ratio)” value was -2.51. In the case of A29C A37C A64G C87A C95G U146G, the “polymerase ribozyme fitness (log ratio)” value was at most -4.2. In the case of U33G A39G G62U G92A A122U U134A, the “polymerase ribozyme fitness (log ratio)” value is at most -4.2.

Turning to C14U C95U U101G C105U C125U A142U, the “polymerase ribozyme fitness (log ratio)” value is at most -4.2.

With C14A G58U, the “polymerase ribozyme fitness (log ratio)” value is -1.88. Next, U55A C105G: -1.73; A17U G48A C51G U55G C96G C105U C118U G136U G141U: at most -4.2; A37G C51U: -2.54.

In the case of G42C C43A U55G C57U A66C A137C G141C, the “polymerase ribozyme fitness (log ratio)” value was at most -4.2. Then C85G G133C U135C, with at most -4.2. Turning to C43A A115U C118G, the “polymerase ribozyme fitness (log ratio)” value was at most -4.2. Consider A26C A37U C79U A106U G143C U146A U148C, for which the “polymerase ribozyme fitness (log ratio)” value was at most -4.2. Regarding A49C A137C, the “polymerase ribozyme fitness (log ratio)” value was at most -4.2.

As to G84U C103U, the “polymerase ribozyme fitness (log ratio)” value is -1.74. Then G50C A120U A121C, with -2.61; and C35U A52G C76A A89C U145A, with -3.45; and A17G A21G U90C A147C A150U, with at most -4.2. Next, U55G G92A: -3.13; U6A U13G C96A C105U: -2.15.

Take A23G G86A G100A: the “polymerase ribozyme fitness (log ratio)” value was at most -4.2. With A40U C95U, the “polymerase ribozyme fitness (log ratio)” value was -1.07. In the case of U15A G58A G86A U144G, the “polymerase ribozyme fitness (log ratio)” value stood at 0.552.

On to A17C U45A C54G G74A A91C U139G, for which the “polymerase ribozyme fitness (log ratio)” value was at most -4.2. Take C54U C96A A97G: the “polymerase ribozyme fitness (log ratio)” value was -1.12. For A40C U90C, the “polymerase ribozyme fitness (log ratio)” value is -4.09.

Turning to U9G A52G G71A A73G G128U G143U, the “polymerase ribozyme fitness (log ratio)” value was at most -4.2. Next, C27G G59U A60C A91U C105U U145C: at most -4.2.

Regarding U9C C18U G71C U82A C85G U146G A150C, the “polymerase ribozyme fitness (log ratio)” value was at most -4.2. For the variant C51A A52C C75A G83U G88C A91G C123G G126U A147U U151G, the “polymerase ribozyme fitness (log ratio)” value is at most -4.2. Next, G59C G124A U151C: -3.78. Take U13A C54G G68A C75G C76G U90G C95G A119U: the “polymerase ribozyme fitness (log ratio)” value is at most -4.2. Then U45A U109C, with -3.44. Then G46A C85U A89G C96A A106C U145C U146G, with at most -4.2. In the case of C114A G140A U148G, the “polymerase ribozyme fitness (log ratio)” value is at most -4.2. For the variant G25A C35U U56A A60C C85A C93U A106C, the “polymerase ribozyme fitness (log ratio)” value was at most -4.2. Then C10G A52G C54U G58C C79A C95U, with -3.91; and A21U U82C, with 0.17; and U4C A24U G81A C85U A89C, with -0.962. Then A24U A52C, with -0.457; and A60C G94C A97G A98G U134C, with -3.8. On to A3C A121U, for which the “polymerase ribozyme fitness (log ratio)” value was 0.339. In the case of A28G C57A U61A C76A G88A C93U U102G, the “polymerase ribozyme fitness (log ratio)” value is at most -4.2. For A64G C99A, the “polymerase ribozyme fitness (log ratio)” value was -3.82. A28C U33G U77C U90G C93A U148C G152A: the “polymerase ribozyme fitness (log ratio)” value was at most -4.2. Next, A28U A147C U151C G152C: at most -4.2; A19U U55A A60G G94U G143U: -3.55. Take A47G C57U U109G: the “polymerase ribozyme fitness (log ratio)” value was -0.869. For G11A C14U U61A G80C C85G C96U A98G C108A, the “polymerase ribozyme fitness (log ratio)” value was at most -4.2. Turning to A52C G70A, the “polymerase ribozyme fitness (log ratio)” value is -3.92. With U44A G67A U77G U78G C87A C95G, the “polymerase ribozyme fitness (log ratio)” value is at most -4.2. For the variant C14G A19G C54U C76G U82G A119G G128C U134C, the “polymerase ribozyme fitness (log ratio)” value was at most -4.2.

On to C69A C85U C123A, for which the “polymerase ribozyme fitness (log ratio)” value is -2.37.

Turning to C57U C131U, the “polymerase ribozyme fitness (log ratio)” value was 1.26. Consider A41G G50C C93G C103U C123A U127C, for which the “polymerase ribozyme fitness (log ratio)” value was at most -4.2. With U7C G25U U31C G62C C75U G117U A122G, the “polymerase ribozyme fitness (log ratio)” value is at most -4.2. In the case of G70A C85G, the “polymerase ribozyme fitness (log ratio)” value was at most -4.2. For A17C A40U U55A A60U A66C C85G C116G G141C A147U, the “polymerase ribozyme fitness (log ratio)” value was at most -4.2. In the case of A22C U102G A110G, the “polymerase ribozyme fitness (log ratio)” value was at most -4.2.
